Source: patent publication US20240209076A1 (KODIAK SCIENCES, published 2024)

target: human IL-6 (human, UniProt P05231 30-212); assay: SPR Biacore, supernatant, Protein A capture, 37 C
Description: Those four positions were selected based on their tolerance for mutations as observed in bacterial and mammalian screens. […] These cultures were centrifuged and supernatants containing secreted antibodies were harvested and diluted in HBS-EP+ running buffer (1:20 ratio).
Antibodies were captured on a Protein A chip (GE) by injecting 1:20 cell supernatant dilutions at 10 μL/min for 60 seconds. […] The sensor chip was regenerated by a 60 seconds injection of 10 mM Glycine pH 1.7 at the flow rate of 50 μL/min. […] For this setup, 1 μg/mL of purified antibody was injected over a Protein A chip at 10 μL/min for 25 seconds. […] The sensor chip was regenerated by a 60 seconds injection of 10 mM Glycine pH 1.7 at flow rate of 50 μL/min. Data analysis for supernatant and purified samples were performed using BIAevaluation software (GE). All sensorgrams were double reference subtracted and fit using a 1:1 Langmuir binding model.

Chain of human IL-6 (P05231 30-212 limits assumed): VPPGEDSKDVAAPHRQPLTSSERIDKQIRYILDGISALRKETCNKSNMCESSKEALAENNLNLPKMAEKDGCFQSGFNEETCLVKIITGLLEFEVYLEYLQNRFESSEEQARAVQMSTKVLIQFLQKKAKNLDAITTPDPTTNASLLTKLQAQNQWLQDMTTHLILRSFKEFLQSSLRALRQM

| Binder | Kd [nM] | koff [s⁻¹] | kon [M⁻¹ s⁻¹] |
| --- | --- | --- | --- |
| Anti-IL-6 antibody, heavy chain S35H, G66D, Q99D / light chain M32L, M50D, N52S, M88Q (antibody, IgG1, V domains shown, IgG1; variable domains only; VL is variant III) VH: EVQLVESGGGLVQPGGSLRLSCAASGFTFSPFAMHWVRQAPGKGLEWVAKISPGGSWTYYSDTVTDRFTFSLDTSKSTAYLQMNSLRAEDTAVYYCARDLWGYYALDIWGQGTLVTVSS VL: DIQLTQSPSSLSASVGDRVTITCSASISVSYLYWYQQKPGKAPKLLIYDDSSLASGVPSRFSGSGSGTDFTLTISSLQPEDFATYYCQQWSGYPYTFGQGTKVEIK | 3.61 |  |  |
| Anti-IL-6 antibody, heavy chain S35H, G66D, Q99L / light chain M32L, M50D, N52S, M88Q (antibody, IgG1, V domains shown, IgG1; variable domains only; VL is variant III) VH: EVQLVESGGGLVQPGGSLRLSCAASGFTFSPFAMHWVRQAPGKGLEWVAKISPGGSWTYYSDTVTDRFTFSLDTSKSTAYLQMNSLRAEDTAVYYCARLLWGYYALDIWGQGTLVTVSS VL: DIQLTQSPSSLSASVGDRVTITCSASISVSYLYWYQQKPGKAPKLLIYDDSSLASGVPSRFSGSGSGTDFTLTISSLQPEDFATYYCQQWSGYPYTFGQGTKVEIK | 0.595 | 0.000775 | 1.3e+06 |
| Anti-IL-6 antibody, heavy chain S35H, G66D, Q99R / light chain WT (antibody, IgG1, V domains shown, IgG1; variable domains only) VH: EVQLVESGGGLVQPGGSLRLSCAASGFTFSPFAMHWVRQAPGKGLEWVAKISPGGSWTYYSDTVTDRFTFSLDTSKSTAYLQMNSLRAEDTAVYYCARRLWGYYALDIWGQGTLVTVSS VL: DIQLTQSPSSLSASVGDRVTITCSASISVSYMYWYQQKPGKAPKLLIYDMSNLASGVPSRFSGSGSGTDFTLTISSLQPEDFATYYCMQWSGYPYTFGQGTKVEIK | 11.4 | 0.00161 | 141000 |
| Anti-IL-6 antibody, heavy chain S35H, G66D, Q99K / light chain M32L, M50D, N52S, M88Q (antibody, IgG1, V domains shown, IgG1; variable domains only; VL is variant III) VH: EVQLVESGGGLVQPGGSLRLSCAASGFTFSPFAMHWVRQAPGKGLEWVAKISPGGSWTYYSDTVTDRFTFSLDTSKSTAYLQMNSLRAEDTAVYYCARKLWGYYALDIWGQGTLVTVSS VL: DIQLTQSPSSLSASVGDRVTITCSASISVSYLYWYQQKPGKAPKLLIYDDSSLASGVPSRFSGSGSGTDFTLTISSLQPEDFATYYCQQWSGYPYTFGQGTKVEIK | 0.368 | 0.00146 | 3.97e+06 |
| Anti-IL-6 antibody, heavy chain S35H, G66D, Q99H / light chain M32L, M50D, N52S, M88Q (antibody, IgG1, V domains shown, IgG1; variable domains only; VL is variant III) VH: EVQLVESGGGLVQPGGSLRLSCAASGFTFSPFAMHWVRQAPGKGLEWVAKISPGGSWTYYSDTVTDRFTFSLDTSKSTAYLQMNSLRAEDTAVYYCARHLWGYYALDIWGQGTLVTVSS VL: DIQLTQSPSSLSASVGDRVTITCSASISVSYLYWYQQKPGKAPKLLIYDDSSLASGVPSRFSGSGSGTDFTLTISSLQPEDFATYYCQQWSGYPYTFGQGTKVEIK | 5.52 | 0.00441 | 798000 |
| Anti-IL-6 antibody, heavy chain S35H, G66D, Q99I / light chain M32L, M50D, N52S, M88Q (antibody, IgG1, V domains shown, IgG1; variable domains only; VL is variant III) VH: EVQLVESGGGLVQPGGSLRLSCAASGFTFSPFAMHWVRQAPGKGLEWVAKISPGGSWTYYSDTVTDRFTFSLDTSKSTAYLQMNSLRAEDTAVYYCARILWGYYALDIWGQGTLVTVSS VL: DIQLTQSPSSLSASVGDRVTITCSASISVSYLYWYQQKPGKAPKLLIYDDSSLASGVPSRFSGSGSGTDFTLTISSLQPEDFATYYCQQWSGYPYTFGQGTKVEIK | 0.0381 | 0.000206 | 5.41e+06 |
| Anti-IL-6 antibody, heavy chain S35H, G66D, Q99K / light chain WT (antibody, IgG1, V domains shown, IgG1; variable domains only) VH: EVQLVESGGGLVQPGGSLRLSCAASGFTFSPFAMHWVRQAPGKGLEWVAKISPGGSWTYYSDTVTDRFTFSLDTSKSTAYLQMNSLRAEDTAVYYCARKLWGYYALDIWGQGTLVTVSS VL: DIQLTQSPSSLSASVGDRVTITCSASISVSYMYWYQQKPGKAPKLLIYDMSNLASGVPSRFSGSGSGTDFTLTISSLQPEDFATYYCMQWSGYPYTFGQGTKVEIK | 15.1 | 0.00333 | 220000 |
| Anti-IL-6 antibody, heavy chain S35H, G66D, Q99E / light chain WT (antibody, IgG1, V domains shown, IgG1; variable domains only) VH: EVQLVESGGGLVQPGGSLRLSCAASGFTFSPFAMHWVRQAPGKGLEWVAKISPGGSWTYYSDTVTDRFTFSLDTSKSTAYLQMNSLRAEDTAVYYCARELWGYYALDIWGQGTLVTVSS VL: DIQLTQSPSSLSASVGDRVTITCSASISVSYMYWYQQKPGKAPKLLIYDMSNLASGVPSRFSGSGSGTDFTLTISSLQPEDFATYYCMQWSGYPYTFGQGTKVEIK | 3.91 | 0.00193 | 493000 |
| Anti-IL-6 antibody, heavy chain S35H, G66D, Q99G / light chain WT (antibody, IgG1, V domains shown, IgG1; variable domains only) VH: EVQLVESGGGLVQPGGSLRLSCAASGFTFSPFAMHWVRQAPGKGLEWVAKISPGGSWTYYSDTVTDRFTFSLDTSKSTAYLQMNSLRAEDTAVYYCARGLWGYYALDIWGQGTLVTVSS VL: DIQLTQSPSSLSASVGDRVTITCSASISVSYMYWYQQKPGKAPKLLIYDMSNLASGVPSRFSGSGSGTDFTLTISSLQPEDFATYYCMQWSGYPYTFGQGTKVEIK | 0.961 | 0.0033 | 3.43e+06 |
| Anti-IL-6 antibody, heavy chain S35H, G66D, Q99H / light chain WT (antibody, IgG1, V domains shown, IgG1; variable domains only) VH: EVQLVESGGGLVQPGGSLRLSCAASGFTFSPFAMHWVRQAPGKGLEWVAKISPGGSWTYYSDTVTDRFTFSLDTSKSTAYLQMNSLRAEDTAVYYCARHLWGYYALDIWGQGTLVTVSS VL: DIQLTQSPSSLSASVGDRVTITCSASISVSYMYWYQQKPGKAPKLLIYDMSNLASGVPSRFSGSGSGTDFTLTISSLQPEDFATYYCMQWSGYPYTFGQGTKVEIK | 1.7 | 0.00136 | 802000 |
| Anti-IL-6 antibody, heavy chain S35H, G66D, Q99D / light chain WT (antibody, IgG1, V domains shown, IgG1; variable domains only) VH: EVQLVESGGGLVQPGGSLRLSCAASGFTFSPFAMHWVRQAPGKGLEWVAKISPGGSWTYYSDTVTDRFTFSLDTSKSTAYLQMNSLRAEDTAVYYCARDLWGYYALDIWGQGTLVTVSS VL: DIQLTQSPSSLSASVGDRVTITCSASISVSYMYWYQQKPGKAPKLLIYDMSNLASGVPSRFSGSGSGTDFTLTISSLQPEDFATYYCMQWSGYPYTFGQGTKVEIK | 2.34 | 0.00302 | 1.29e+06 |
| Anti-IL-6 antibody, heavy chain S35H, G66D, Q99E / light chain M32L, M50D, N52S, M88Q (antibody, IgG1, V domains shown, IgG1; variable domains only; VL is variant III) VH: EVQLVESGGGLVQPGGSLRLSCAASGFTFSPFAMHWVRQAPGKGLEWVAKISPGGSWTYYSDTVTDRFTFSLDTSKSTAYLQMNSLRAEDTAVYYCARELWGYYALDIWGQGTLVTVSS VL: DIQLTQSPSSLSASVGDRVTITCSASISVSYLYWYQQKPGKAPKLLIYDDSSLASGVPSRFSGSGSGTDFTLTISSLQPEDFATYYCQQWSGYPYTFGQGTKVEIK | 4.71 | 0.00089 | 189000 |
| Anti-IL-6 antibody, heavy chain S35H, G66D, Q99L / light chain WT (antibody, IgG1, V domains shown, IgG1; variable domains only) VH: EVQLVESGGGLVQPGGSLRLSCAASGFTFSPFAMHWVRQAPGKGLEWVAKISPGGSWTYYSDTVTDRFTFSLDTSKSTAYLQMNSLRAEDTAVYYCARLLWGYYALDIWGQGTLVTVSS VL: DIQLTQSPSSLSASVGDRVTITCSASISVSYMYWYQQKPGKAPKLLIYDMSNLASGVPSRFSGSGSGTDFTLTISSLQPEDFATYYCMQWSGYPYTFGQGTKVEIK | 0.244 | 0.000262 | 1.07e+06 |
| Anti-IL-6 antibody, heavy chain S35H, G66D, Q99G / light chain M32L, M50D, N52S, M88Q (antibody, IgG1, V domains shown, IgG1; variable domains only; VL is variant III) VH: EVQLVESGGGLVQPGGSLRLSCAASGFTFSPFAMHWVRQAPGKGLEWVAKISPGGSWTYYSDTVTDRFTFSLDTSKSTAYLQMNSLRAEDTAVYYCARGLWGYYALDIWGQGTLVTVSS VL: DIQLTQSPSSLSASVGDRVTITCSASISVSYLYWYQQKPGKAPKLLIYDDSSLASGVPSRFSGSGSGTDFTLTISSLQPEDFATYYCQQWSGYPYTFGQGTKVEIK | 2.58 | 0.00774 | 3e+06 |
| Anti-IL-6 antibody, heavy chain S35H, G66D, Q99F / light chain WT (antibody, IgG1, V domains shown, IgG1; variable domains only) VH: EVQLVESGGGLVQPGGSLRLSCAASGFTFSPFAMHWVRQAPGKGLEWVAKISPGGSWTYYSDTVTDRFTFSLDTSKSTAYLQMNSLRAEDTAVYYCARFLWGYYALDIWGQGTLVTVSS VL: DIQLTQSPSSLSASVGDRVTITCSASISVSYMYWYQQKPGKAPKLLIYDMSNLASGVPSRFSGSGSGTDFTLTISSLQPEDFATYYCMQWSGYPYTFGQGTKVEIK | 3.39 | 0.00166 | 489000 |
| Anti-IL-6 antibody, heavy chain S35H, G66D, Q99F / light chain M32L, M50D, N52S, M88Q (antibody, IgG1, V domains shown, IgG1; variable domains only; VL is variant III) VH: EVQLVESGGGLVQPGGSLRLSCAASGFTFSPFAMHWVRQAPGKGLEWVAKISPGGSWTYYSDTVTDRFTFSLDTSKSTAYLQMNSLRAEDTAVYYCARFLWGYYALDIWGQGTLVTVSS VL: DIQLTQSPSSLSASVGDRVTITCSASISVSYLYWYQQKPGKAPKLLIYDDSSLASGVPSRFSGSGSGTDFTLTISSLQPEDFATYYCQQWSGYPYTFGQGTKVEIK | 0.0997 | 0.000113 | 1.14e+06 |
| Anti-IL-6 antibody, heavy chain S35H, G66D, Q99R / light chain M32L, M50D, N52S, M88Q (antibody, IgG1, V domains shown, IgG1; variable domains only; VL is variant III) VH: EVQLVESGGGLVQPGGSLRLSCAASGFTFSPFAMHWVRQAPGKGLEWVAKISPGGSWTYYSDTVTDRFTFSLDTSKSTAYLQMNSLRAEDTAVYYCARRLWGYYALDIWGQGTLVTVSS VL: DIQLTQSPSSLSASVGDRVTITCSASISVSYLYWYQQKPGKAPKLLIYDDSSLASGVPSRFSGSGSGTDFTLTISSLQPEDFATYYCQQWSGYPYTFGQGTKVEIK | 2.34 | 0.000657 | 280000 |
| Anti-IL-6 antibody, heavy chain S35H, G66D, Q99P / light chain M32L, M50D, N52S, M88Q (antibody, IgG1, V domains shown, IgG1; variable domains only; VL is variant III) VH: EVQLVESGGGLVQPGGSLRLSCAASGFTFSPFAMHWVRQAPGKGLEWVAKISPGGSWTYYSDTVTDRFTFSLDTSKSTAYLQMNSLRAEDTAVYYCARPLWGYYALDIWGQGTLVTVSS VL: DIQLTQSPSSLSASVGDRVTITCSASISVSYLYWYQQKPGKAPKLLIYDDSSLASGVPSRFSGSGSGTDFTLTISSLQPEDFATYYCQQWSGYPYTFGQGTKVEIK | 1.35 | 0.00169 | 1.25e+06 |
| Anti-IL-6 antibody, heavy chain S35H, G66D, Q99I / light chain WT (antibody, IgG1, V domains shown, IgG1; variable domains only) VH: EVQLVESGGGLVQPGGSLRLSCAASGFTFSPFAMHWVRQAPGKGLEWVAKISPGGSWTYYSDTVTDRFTFSLDTSKSTAYLQMNSLRAEDTAVYYCARILWGYYALDIWGQGTLVTVSS VL: DIQLTQSPSSLSASVGDRVTITCSASISVSYMYWYQQKPGKAPKLLIYDMSNLASGVPSRFSGSGSGTDFTLTISSLQPEDFATYYCMQWSGYPYTFGQGTKVEIK | 3.86 | 0.00335 | 868000 |
